Reference: publication doi:10.1101/2025.07.01.662558 (bioRxiv, 2025)

T1: Hsp90 from S. oneidensis (Hsp90So), purified, non-labeled (S. oneidensis, UniProt Q8EFF7 1-637)
T1 sequence (looked up): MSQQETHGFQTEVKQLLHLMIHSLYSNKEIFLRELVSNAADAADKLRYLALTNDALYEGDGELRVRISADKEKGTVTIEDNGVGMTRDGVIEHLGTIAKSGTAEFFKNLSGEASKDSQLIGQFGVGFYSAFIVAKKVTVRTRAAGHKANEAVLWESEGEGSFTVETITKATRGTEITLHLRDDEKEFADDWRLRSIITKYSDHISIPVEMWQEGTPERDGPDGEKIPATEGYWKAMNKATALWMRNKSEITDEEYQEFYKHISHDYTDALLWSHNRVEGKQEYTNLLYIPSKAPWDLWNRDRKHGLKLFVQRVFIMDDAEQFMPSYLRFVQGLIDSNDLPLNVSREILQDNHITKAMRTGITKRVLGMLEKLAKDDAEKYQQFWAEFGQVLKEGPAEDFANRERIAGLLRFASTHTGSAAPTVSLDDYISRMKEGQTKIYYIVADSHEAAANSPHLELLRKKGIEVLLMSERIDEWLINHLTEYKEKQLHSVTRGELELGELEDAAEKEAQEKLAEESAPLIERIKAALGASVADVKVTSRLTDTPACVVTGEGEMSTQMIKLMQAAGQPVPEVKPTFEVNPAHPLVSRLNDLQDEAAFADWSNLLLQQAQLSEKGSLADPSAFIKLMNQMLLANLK


Target: T1, Hsp90 from S. oneidensis (Hsp90So), …
Test: MST

Kd | binding result | Binder
1090 nM | – | TilS from S. oneidensis (TilSSo), purified, with 6-His tag (natural protein, UniProt Q8EGF9 1-464, looked up, RED-tris-NTA 2nd generation dye (NanoTemper) on the 6-His tag) MTAQDLSVHIARWLDSLPLQAGSKLVLAYSGGVDSEVLAYGLSEYAKQRPDLRYQLIYVHHGLSPNADNWAKHCQARAAIYGLPVTVERVQLILGPRVSVEAEARKARYQAILPHLNPQDILLTAHHEDDQLETILLALKRGQGPKGLAAMGQIQPLSLADKGSCLQVRPLLDISREMIETFAQTRQLVHIEDESNQDDKYDRNFLRLEIIPRLKARWPSIATTASRSAQLCAEQQAIVETEVSERLPKLLVKAPVTEQTVLKLSELAAQPIEWQGILLRGFIESQEFSLPSYVQLQQMLQQLIHAKEDAKVHIRINDCVLRRFAGMLYLDSGETLSTALHITARDLHQEILTLLTQASAMVEDKIVPFALVTTGPRLRLPKADEVVSLGYGLPGQFRCQPHFRDKGRELKKLWQECAVPPWLRAEVGFLFYNDKLVMAFGLWVEKAFCAQGDEIGLSYLIANP
– | binds | TilSSoL340P, purified (natural protein, S. oneidensis, UniProt Q8EGF9 1-464, looked up, RED-tris-NTA 2nd generation dye (NanoTemper)) MTAQDLSVHIARWLDSLPLQAGSKLVLAYSGGVDSEVLAYGLSEYAKQRPDLRYQLIYVHHGLSPNADNWAKHCQARAAIYGLPVTVERVQLILGPRVSVEAEARKARYQAILPHLNPQDILLTAHHEDDQLETILLALKRGQGPKGLAAMGQIQPLSLADKGSCLQVRPLLDISREMIETFAQTRQLVHIEDESNQDDKYDRNFLRLEIIPRLKARWPSIATTASRSAQLCAEQQAIVETEVSERLPKLLVKAPVTEQTVLKLSELAAQPIEWQGILLRGFIESQEFSLPSYVQLQQMLQQLIHAKEDAKVHIRINDCVLRRFAGMLYLDSGETLSTAPHITARDLHQEILTLLTQASAMVEDKIVPFALVTTGPRLRLPKADEVVSLGYGLPGQFRCQPHFRDKGRELKKLWQECAVPPWLRAEVGFLFYNDKLVMAFGLWVEKAFCAQGDEIGLSYLIANP
